{"source": "paper PMC3320862", "about": "“Structural and Functional Analysis of the Symmetrical Type I Restriction Endonuclease R.EcoR124INT” (PLOS One, 2012)", "binders": {"B1": {"name": "HsdR from EcoR124I (enzyme, UniProt P10486 1-1038, looked up)", "chain": "MTHQTHTIAESNNFIVLDKYIKAEPTGDSYQSESDLERELIQDLRNQGYEFISVKSQSAMLANVREQLQNLNGVVFNDSEWRRFTEQYLDNPSDGILDKTRKIHIDYICDFIFDDERLENIYLIDKKNLMRNKVQIIQQFEQAGSHANRYDVTILVNGLPLVQIELKKRGVAIREAFNQIHRYSKESFNSENSLFKYLQLFVISNGTDTRYFANTTKRDKNSFDFTMNWAKSDNTLIKDLKDFTATCFQKHTLLNVLVNYSVFDSSQTLLVMRPYQIAATERILWKIKSSFTAKNWSKPESGGYIWHTTGSGKTLTSFKAARLATELDFIDKVFFVVDRKDLDYQTMKEYQRFSPDSVNGSENTAGLKRNLDKDDNKIIVTTIQKLNNLMKAESDLPVYNQQVVFIFDECHRSQFGEAQKNLKKKFKRYYQFGFTGTPIFPENALGSETTASVFGRELHSYVITDAIRDEKVLKFKVDYNDVRPQFKSLETETDEKKLSAAENQQAFLHPMRIQEITQYILNNFRQKTHRTFPGSKGFNAMLAVSSVDAAKAYYATFKRLQEEAANKSATYKPLRIATIFSFAANEEQNAIGEISDETFDTSAMDSSAKEFLDAAIREYNSHFKTNFSTDSNGFQNYYRDLAQRVKNQDIDLLIVVGMFLTGFDAPTLNTLFVDKNLRYHGLMQAFSRTNRIYDATKTFGNIVTFRDLERSTIDAITLFGDKNTKNVVLEKSYTEYMEGFTDAATGEAKRGFMTVVSELEQRFPDPTSIESEKEKKDFVKLFGEYLRAENILQNYDEFATLKALQQIDLSDPVAVEKFKAEHYVDDEKFAELQTIRLPADRKIQDYRSAYNDIRDWQRREKEAEKKEKSTTDWDDVVFEVDLLKSQEINLDYILGLIFEHNRQNKGKGEMIEEVKRLIRSSLGNRAKEGLVVDFIQQTNLDDLPDKASIIDAFFTFAQREQQREAEALIKEENLNEDAAKRYIRTSLKREYATENGTELNETLPKLSPLNPQYKTKKQAVFQKIVSFIEKFKGVGGKI", "notes": "HsdR (restriction / motor subunit) of the Type I restriction-modification system EcoR124I; about 120 kDa as printed; For one SANS sample the same protein was made about 75% deuterated (85% D2O minimal medium); also called R subunit; motor subunit; source: expressed and purified as described previously [24]; deuterated form from BL21 (DE3) with the expression plasmid pBGSR124"}}, "key": {"[1]": {"molecular_target": "T1, M.EcoR124INT methyltransferase (UniProt P10484 1-520; P10485 1-215)", "T1 construct": "HsdM (modification subunit, M) of the Type I restriction-modification system EcoR124I; SNT: residues 1-215 of the parent specificity subunit HsdS (S) of EcoR124I, holding the N-terminal target recognition domain and the central conserved region; Complex formed beforehand (M and SNT), to which HsdR was added; M2 stoichiometry is printed for Type I MTases in general (M2S); 'two modified SNT …", "T1 sequence (looked up) 1": "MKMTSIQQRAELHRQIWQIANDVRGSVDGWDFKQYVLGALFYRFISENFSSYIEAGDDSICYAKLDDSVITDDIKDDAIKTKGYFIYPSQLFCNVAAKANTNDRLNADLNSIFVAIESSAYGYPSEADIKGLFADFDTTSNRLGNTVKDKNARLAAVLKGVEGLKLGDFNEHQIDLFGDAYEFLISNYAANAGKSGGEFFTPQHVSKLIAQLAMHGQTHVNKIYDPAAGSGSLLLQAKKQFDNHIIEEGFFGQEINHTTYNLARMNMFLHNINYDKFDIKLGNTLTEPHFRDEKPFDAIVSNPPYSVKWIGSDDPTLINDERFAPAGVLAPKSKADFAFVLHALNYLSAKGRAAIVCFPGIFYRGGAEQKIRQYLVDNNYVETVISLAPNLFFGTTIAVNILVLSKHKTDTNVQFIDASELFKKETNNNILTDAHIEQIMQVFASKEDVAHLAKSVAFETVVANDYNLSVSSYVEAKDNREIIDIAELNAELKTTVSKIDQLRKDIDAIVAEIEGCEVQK", "T1 sequence (looked up) 2": "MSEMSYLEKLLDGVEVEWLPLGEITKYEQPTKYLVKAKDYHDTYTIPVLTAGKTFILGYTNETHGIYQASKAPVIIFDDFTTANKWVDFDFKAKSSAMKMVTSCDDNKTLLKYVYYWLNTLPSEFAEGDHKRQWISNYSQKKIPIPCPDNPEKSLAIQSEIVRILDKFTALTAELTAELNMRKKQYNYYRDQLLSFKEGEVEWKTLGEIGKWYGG", "experiment": "small-angle neutron scattering; ENase formed at 2:1 molar ratio HsdR:MTase, ca. 3 uM, buffer A; fully protonated complex in H2O, and complex with deuterated HsdR and protonated MTase in 40% D2O (MTase matched out)", "conditions": "both partners purified"}, "[2]": {"molecular_target": "T1, M.EcoR124INT methyltransferase", "experiment": "native gel or EMSA; purified HsdR mixed with MTase at 1:1 and 2:1 molar ratios, then with a 30 bp DNA duplex with the recognition sequence (1:1 enzyme:DNA); 2 uM MTase and DNA, 2 or 4 uM HsdR; 6% non-denaturing polyacrylamide gel, 150 V, 2.5 h, 0.25x TBE; no difference with 10 mM MgCl2", "conditions": "both partners purified"}}, "data": [{"binder": "B1", "values": [{"measurement": "stoichiometry N", "setting": "[1]", "result": 2, "unit": "HsdR per complex"}, {"measurement": "stoichiometry N", "setting": "[2]", "result": 2, "unit": "HsdR per MTase"}]}]}
